# Assay results as given in the nanobody polyreactivity screen of Harvey et al. (2022).
# Experiment: yeast display, Sf9 membrane polyspecificity reagent, FACS + sequencing; frameworks hold sequencing errors
# Procedure, shortened: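 A synthetic nanobody library was expressed on Saccharomyces cerevisiae BJ5465 by galactose induction for 36–48 hours. The library was stained for 1 hour at 4 °C with 10% biotinylated, detergent-solubilized Sf9 membrane reagent and enriched with streptavidin microbeads before FACS. Low and high (top ~1%) gates were set on anti-HA fluorescence for expression and streptavidin fluorescence for reagent binding, and each polyreactivity label reflects the gate of origin.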
row,Sequence,polyreactivity (PSR sort gate)
1,QVQLVESGGGLVQAGGSLRLSCAASGSIFVFNAMGWYRQAPGKERELVADITRRGGSTYYADSVKGRFTISRDNAKNTVYLQMNSLKPEDTAVYYCAAANPRDHRGANDYWGQGTQVTVSS,high polyreactivity
2,QVQLVESGGGLVQAGGSLRLSCSASGRNFWFYAKGWYRQAPGKERELVAAISSGGSTNYADSVKGRFTISRDNAKNTVYLQMNSLKPEDTAVYYCAKVGNIPYGTRYYSNRYDYWGQGTLVTVSS,low polyreactivity
3,QVQLVESGGGLVQAGGSLGLSCAASGSTFHLYAMGWYRQAPGKEREFVAAIRGRGGNTYADSVKGRFTISRDNAKNTVSLQMNSLKPEDTAVYYCAAPLLRVLRSPYSYNYWGQGTQVTVSS,low polyreactivity
4,QVQLVESGGGLVNAGGTLRLSCAASGSTFYRNAMGWYRQAPGKERELVATITYSGGSTYYADSVKGRFTNSRDNAKNTVYLQMNSLKPEDTAVYYCAVRRLRRNFVSYYYWGQGTQVTVSS,high polyreactivity
5,QVQLVESGGGLVQAGGSLRLSCAASGLTFKYYAMGWYRQAPGKERELVAAISWNGDRTYYADSVKGRFTISRDNAKNTVYLQMNSLKPEDTAVYYCATKFYFSTSIAGGYWGQGTQVTVSS,high polyreactivity
6,QVQLVESGGGLVQAGGSLRLSCAASGRTFNVYAMGWYRQAPGKERELVASISSSDTTNYADSVKGRFTISRDNAKNTVYIQMNSLKPEDTAVYYCAADYTPDLLSKVDYWGQGTQVTVSS,low polyreactivity
7,QVQLVESGGGLVQAGGSLRLSCAASGRIFGIYAMGWYRQAPGKERELVAAITWNGGSTYYADSVKGRFTNSRDNAKNTVYLQMNSLKPEDTAVYYCAARTADYSYGRRVVTRYGYWGQGTQVTVSS,high polyreactivity
8,QVQLVESGGGLVQAGGSLRLSCAASGSIFSANAMGWYRQAPGKERELVASITGDGSTNYADSVKGRFTISRDNAKNTVYLQMNSLKPEDTAVYYCAADIGSWYDYWGQGTQVTVSS,low polyreactivity
9,QVQLVESGGGLVQAGGSLRLSCAASGRIFRGYAMGWYRQAPGKEREFVDAITKNGGSTYYADSVKGRFTISRDNAKNTVYLQMNSLKPEDTAVYYCAVRAWDPYTGKSEYWGQGTQVTVSS,low polyreactivity
10,QVQLVESGGGLVQAGGSLRLSCAASGRTFPSYTMGWYRQAPGKERELVAAISKSGGNTYYADSVKGRFTISRDNAKNTVYLQMNSLKPEDTAVYYCNADTYALGAAVIPGDEYWGQGTQVTVSS,low polyreactivity
11,QVQLVESGGGLVQEGGSLRLSCAASGITFTSYTMGWYRQAPGKERELVAAISSGGSTYYADSVKGRFTISRDNAKNTVYLQMNSLKPEDTAVYYCAAISYVFRMYYWGQGTQVTVSS,high polyreactivity
12,QVQLVESWGGLVQAGGSLRLSCAASGFIFTLYAMGWYRQATGKEREFVAAISWSDGSTTYADSVKGRFTISRDNAKTTVYLQMNSLKPEDTAVYYCAAVTSSYIRGLVYHFYYWGQGTQVTVSS,low polyreactivity
13,QVQLVESGGGLVQAGGSLRLSCAASGSTFDQNTMGWYREAPGKERELVASITGGDSTNYADSVKGRFTISRDNAKNTVYLQMNSLKPEDTAVYYCAADKLYQPGIGDDYWGQGTQVTVSS,low polyreactivity
14,QVQLVESGGGLVQAGGSLRLSCAASGSTFDSYAMGWYSQAPGKERELVAAITYSGGRTYYADSVKGRFTISRDNAKNTVYLQMNSLKPEDTAVYYCAATGVFRDEYWGQGTQVTVSS,low polyreactivity
15,QVQLVESGGGLVQAGGSLRLSCAASGIIFNWYAMGWYRQAPGKERELVAAISGSGDITYYADSVKGRFTISRDNAKNTVYLQMNSLKPEDTAVYYCAADPWTYWEDYDYWGQGTQVTVSS,low polyreactivity
16,QVQLVESGGGLVQAGGSLRLSCAASGITFNPYTMGWYRQAPGKERELVADINRGGDTTYADSVKGRFTISRDNAKNTVYLQMNSLKPEDTAVYYCAKRLVQWMDYWGQGTQVTVSS,low polyreactivity
17,QVQLVESGGGLDQAGGSLRLICAASGITIEYYAMAWYRTAPGKERELVAAISSGGGSTYYADSVKGRFTISRDNAKNSVYLQMISLKPEDTAVYYCAADIVSSPSSYVPPGDYWGQGTQVTVSS,low polyreactivity
18,QVQHVESGGGLVQAGGSLRLSSAASGNTINSNAMGWYRQSPGKEREFVAAISGSGSSTYYADSVKGRFTISRDYAKNTVYLQMNSLNPEDTAVYYCAARWGYFGSFDYWGQGTQVTVSS,high polyreactivity
19,QVHLVESGGGLVQAGGSLRLSCAASGSIFGYNAMGWYRQAPGKERELVAAITWRGGSTYYADSVKGRFTISRDNAKNTVYLQMNSLKPEDTAVYYCAAYVYQEYDYWGQGTQVTVSS,high polyreactivity
20,QVQLVESGGGLVQAGGSLRLSCAASGRILFYYGMGWYRQAPGKERELVAAISKRGGSTYYADSVKGRFTISRDNAKNTVYLQMNSLKPEDTAVYYCAAVQPAWGNGYWGQGTQVTVSS,high polyreactivity
21,QVQLVESGGGLVQAGGRLRISCAASGFTFDLYAMGWYRQAPGKERELVAAISWSGGSTRYADSVKGRFTISRDNAKNTVYLQMNSLKPEDTAVSYCARQPRLYFKGKLYGYWGQGTQVTVSS,high polyreactivity
22,QVQLVESGGGLVQAGGSLRLSCAASGSTFYYYALGWYRQAPGKERELVASITRGGGSTYYADSVKGRFTISRDNAKNTVYLQMNSLKPEDTAVYYCAARGRFRKYDYWGQGTQVTVSS,high polyreactivity

row,Sequence,polyreactivity (PSR sort gate)
1,QVQIEESGGGLVQAGGSLRLSCAASGFIFRPYAMGWYRQAPGKERELVAAITGGGSTYYADSVKGRFTISRDNAKNTVYLQMISLKPEDTAVYYCNADRRRRSGGFAGWHFQRNDYWGQGTQVTVSS,low polyreactivity
2,QVQLVESGGGLVQAGGSLRLSCAASGRIFRRNVMGWYRQAPGKERELVAAITGSGSSTYYADSVKGRFTISRDNAKNTVYLQMNSLKPVDTAVYYCATKWRFKLGDYWGQGTQVTVSS,high polyreactivity
3,QVQLVESGGGLVQAGGSLRLSCAASGSIIGRYTMGWYRQAPGKERELVAAISRSGGSTYYADSVKGRFTISRDNAKNTVYLQMNSLKPEDTAVYYCAARYRAKRRYYYWGQGTQVTVSS,high polyreactivity
4,QVQLVESGGGLVQAGGSLRISCAPSGGILYHYVMGWYRQAPGTERELVAAISRAGRTYYADSVKGRFTISRDNAKNTVYLQMNSLKPEDTAVYYCNAYFRYFYWGLGTQVTVSS,high polyreactivity
5,QVQLVESGGGFVQAGGSLRLSCAASGYTLRIYAMGWYRQAPGKERELVAAISRSGGRTFYADSVKGRFTISRDNAKNTVYLQMNSLKPEDSAVYYCAAVPRSYDTGRMDYWGQGTQVTVSS,high polyreactivity
6,QVQLVESGGGLVQAGGSLRLSCAASGFISTINVMGWYRQAPGKERELVAAITYIDGSTFYADSVKGRFTISRDNAKNTVYLQMNSLKPEDTAVYYCAADLYQWGAVFLYVRSTGLDYWGQGTQVTVSS,low polyreactivity
7,QVQLVESGGGLVQAGGSLRLSCAASGRIFVRYDMGWYRQAPGKERELVAAISSSDGSTYYADSVKGRFTISRDNAKNTVYLQMNSLKPEDTAVYYCNADVSLDDYDYWGQGTQVTVSS,low polyreactivity
8,QVQLEESGRGLVQAGGSLRISCAASGRIFWGYAMGWYRQAPRKERELVARITSGGDTYYADSVKGRFTISRDNAKNTVYLQMNSLKPEDTAVYYCAAELRPGYRSSYGLIYDYWGQGTQVTVSS,low polyreactivity
9,QVQHVESGGGLVQAGGSLRLSCAASGRIFTYYTMGWYRQAPGKERELVAAISWSGGRTYYADSVKGRFTISRDNAKNTVYLQMNSLKPEDTAVYYCARLQDSRESPWRGYYWGQGTQVTVSS,high polyreactivity
10,QVQLVESGGGLVQAGGSLRLSCAASGYIFGYYVMGWYRQAPGKERELVAAITGRGGSTYYADSVKGRFTISRDNAKNTVYLQMNSLKPEDTAVYYCAADATTYPYDPWHLYEIWEYYYWGQGTQVTVSS,low polyreactivity
11,QVQLVEAGGGLVQAGGSLRLSCAASGSTFKRYAMGWYRQAPGKERELVASISSGGSTNYADSVKGRFTISRDNAKNTVYLQMNSLKPEDTAVDYCAVSYRSFRYYWERYYSWGQGTQVTVSS,high polyreactivity
12,QVQLVESGGGLVQAGGSLRLSCAASGFIFRVNAMGWYRQAPGKERELVAAISSSGTSTYYADSVKGRFTISRDNAKNTVYLQMNSLKPEDTAVYYCAARLFYRSAYGYWGQGTQVTVSS,high polyreactivity
13,QVQLVESGGGLVQAGGSLRISCAASGRIYNRNAMGWYRQAPGKERELVAAIRSDGTTNYADSVKGRFTISRDNAKNTVYLQMISLKPEDTAVYYCNAEEGYHWWIIPEEDDYWGQGTQVTVSS,low polyreactivity
14,QVQLVESGGGLVQAGGSLRLSCAASGRTFSRYAMGWYRQAPGKERELVAAITWSGGRTYYADSVKGRFTISSDNAKNTVYLQMNSLKPEDTAVYYCAASYRCYKHADPLYNYWGQGTQVTVSS,low polyreactivity
15,QVQLVESGGGLVQAGGSLRLSCAASGRIFRRNAMGWYRQAPGKERDLVAAITYSGTRTYYADSVKGRFTISRDNAKITVYLQMNSLKPEDTAVYYCNAGVGYFVGTYYGFLPYDYWGQGTQVTVSS,high polyreactivity
16,QVQLVESGGGLVQAGGSLRLSCAASGIIFGFYAMGWYREAPGKERELVADITNDGGNTNYADSVKGRFTISRDNAKNTVYLQMNSLKPEDTAVYYCNADRTQVRNRYTYATFDYWGQGTQVTVSS,low polyreactivity
17,QVQLVESGGGLVQAGGSLRLSCAASGFTFYYYAMGWYRQAPGKERELVAAITWSGDSTNYADSVKGRFTISRDNAKNTVYLQMNSLKPEDTAVYYCATESYDSYGLYDYWGQGTQVTVSS,low polyreactivity
18,QVQLVESGGGLVQAGGSLRLSCAASGRIFYANTMGWYRQAPGKEWELVAAITSGGSTNYADSVKGRFTISRDNAKNTVYGQKNSLKPEDTAVYYCATKQRRGYWGYITAYARYYWGQGTQVTVSS,high polyreactivity
19,QVQLVESGGGLVQAGGSLSLSCAASGSIFGRNTMGWYRQAPGKERELVAAITLRGGSTYYADSVKGRFTISRDNAKKTVYLQMNSLKPEDTSDYYCATDGWKQSAYDYWGQGTQVTVSS,low polyreactivity
20,QVQLVESGGGLVQAGGSLRLSCASSGFTFSVYAMGWYRQAPGKERELVAAITWRGGSTYYADSVKGRFTISRDNAKNTVYLQMNSLKPEDTAVYYCAVLYPKYGKRYGYWGQGTQVTVSS,high polyreactivity
21,QGQLVESGGGLVQAGGSLRLSCAASGFIFFSNAMGWYRQEPGKERELVAAISRIGVSTYYADSVKGRFTISRDNAKNTVYLQLNSLKPEDTAVYYCAADLSDYWRGDSWGQGTLVTVSS,low polyreactivity
